Non-standard residues stand in square brackets, D forms with d. Primed or numbered codes have the meaning given here. No end group written: not given here. *: point of attachment. Acetyl(1-pyrenyl) = O=C(Cc1ccc2ccc3cccc4ccc1c2c34)*; Aoc′ = aminooctanoic acid linker; pS = N[C@@H](COP(=O)(O)O)C(=O)O; Abu = CC[C@H](N)C(=O)O; AEEA = NCCOCCOCC(=O)O; Ava = NCCCCC(=O)O; βAla = NCCC(=O)O

In general, IC50 refers to the concentration needed to halve the response being measured.

Assay [1] concerns the target 14-3-3τ (phospho-Ser binding domain) (UniProt P27348). Nature of the assay: cell-based or functional assay.
For assay [2], the target named is peptide P2. Nature of the assay: Apparent KD of lead quencher dyes with peptide P2 (quenching of pyrene fluorescence). Type of assay: binding. Particulars: 5 μM pyrene-labeled P2 peptide, dye 0.5-500 μM, 100 mM Tris HCl pH 75, inner filter corrected. On the procedure: KD values were acquired for the set of the ten lead quenchers with peptide P2, in order to obtain a target range for the quencher:peptide ratios to be employed in the subsequent assays (vide infra). These apparent KD values were determined using the quenching of pyrene fluorescence as a barometer of peptide/quencher complex stability. […] An inner filter effect (at high dye concentrations) was corrected as previously described^8.
Acquisition of Apparent KD Values for Lead Quencher Dyes with Peptide P2 (FIG. 2).

Assay [3] has as its target peptide P5. Put plainly: Apparent KD of lead quencher/peptide pair, Rose Bengal with peptide P5. Type of assay: binding.
Assay [4] concerns the target phosphorylated P5 peptide AcDap(Pyr)RTGRRFS(PO3^2−)YP-amide. Put plainly: Apparent KD of Rose Bengal with phosphorylated P5 peptide. The assay is classed as binding.
Assay [5] deals with T1, cAMP-dependent protein kinase (PKA) (Mus musculus, UniProt P05132). Nature of the assay: Control: phosphorylation-induced change in fluorescence of pyrene-labeled peptides in the absence of quenching dye. The assay is classed as biochemical, murine. The arrangement: made in house. Particulars: 5 μM peptide, 10 nM PKA, 10 μM 14-3-3τ, 1 mM ATP. On the procedure:
2 Identification of the lead pyrene-peptide/quencher pair. The eleven pyrene-substituted peptides (P1-P11 at 5 μM) were incubated with a 5-, 10-, 25-, and 50-fold molar excess of each of the ten lead quenchers in the presence of PKA, ATP, and the phospho-Ser binding domain 14-3-3τ. Several control experiments were performed, including conducting the assay in the absence of quenching agent. Under the latter conditions, only small enhancements in fluorescence (0-64%) were observed (Supporting Information). […] Consequently, the background was subtracted from all readings to establish a baseline upon which changes in fluorescence intensity could be quantified (Supporting Information).
Screening of Lead Quenching Dyes 1-10 with […]. […] The concentrations per well were: 10 nM PKA, 5 μM peptide, 10 μM 14-3-3τ, 1 mM ATP, 5 mM MgCl2, 2 mM DTT, and 25 μM, 50 μM, […] each of 10 different lead dyes in 50 mM Tris at pH 7.5 buffer. The HTS 7000 Bio Assay Reader was set in kinetic mode to monitor the progress of reaction (340 nm excitation filter, […] emission filter, 100 μs and 5 flashes).

The target in assay [6] is T1, cAMP-dependent protein kinase (PKA). Nature of the assay: PKA inhibitor IC50, standard radioactive ATP method. Type of assay: biochemical.
For assay [7] the target is unchanged. Put plainly: PKA inhibitor IC50, Deep Quench method (Ponceau S/peptide P2, 14-3-3τ). The assay is classed as biochemical, murine. Details: made in house. Particulars: [ATP]=1 mM, 1 μM P2, 60 μM Ponceau S, 10 nM PKA. On the procedure:
This step was used to adjust for inter-assay variability and to verify that no significant drop in enzyme activity occurs over the course of the determinations. Subsequently, inhibitor was added at different concentrations. […] Fractional velocities (v/v0) were plotted against inhibitor concentration [I] and fit using the Sigma Plot version 8.02 software's four-parameter logistic nonlinear regression analysis.

Assay [8] has as its target T2, 14-3-3τ (phospho-Ser binding domain) (UniProt P27348 1-245).
T2 sequence (looked up): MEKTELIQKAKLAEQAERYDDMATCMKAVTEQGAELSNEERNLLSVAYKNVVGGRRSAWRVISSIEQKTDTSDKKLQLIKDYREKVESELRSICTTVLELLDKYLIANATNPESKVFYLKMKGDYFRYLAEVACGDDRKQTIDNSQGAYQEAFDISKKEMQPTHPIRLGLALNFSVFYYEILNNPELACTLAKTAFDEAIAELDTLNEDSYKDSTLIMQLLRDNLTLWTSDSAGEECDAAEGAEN
Put plainly: cell-based or functional assay.

Consider “phosphorylated peptide P2, Ac-GRTGRRDap(Pyr)SYP-amide after phosphorylation of Ser by PKA”, for which, in assay [1], the % Fluorescence Enhancement (phosphorylation-induced, PKA + ATP + 14-3-3τ, no quenching dye) is 51%; the Fluorescence Change (phosphorylation-induced fold-change), P2/Ponceau S (1:50), plate reader - bottom read worked out at 7 fold; the Fluorescence Change (phosphorylation-induced fold-change), P2/Ponceau S (1:50), plate reader - top read came out at 15 fold; the Fluorescence Change (phosphorylation-induced fold-change), P2/Ponceau S (1:50), spectrofluorimeter was found to be 21 fold. With `O=C(O)c1c(Cl)c(Cl)c(Cl)c(Cl)c1-c1c2cc(I)c(=O)c(I)c-2oc2c(I)c(O)c(I)cc12` [Peptide D43, Rose Bengal], the Kd worked out at 7.5 ± 1.6 µM in assay [2], 0.4 ± 0.03 µM in assay [3] (Rose Bengal with unphosphorylated AcDap(Pyr)RTGRRFSYP-amide (P5)), 0.4 ± 0.03 µM in assay [3] (Rose Bengal with unphosphorylated peptide P5) and 0.21 ± 0.04 µM in assay [4]. In the case of “phosphorylated peptide P5, AcDap(Pyr)RTGRRFS(PO3^2-)YP-amide”, in assay [1], the % Fluorescence Enhancement (phosphorylation-induced, PKA + ATP + 14-3-3τ, no quenching dye) was determined as 64%; the Fluorescence Change (phosphorylation-induced fold-change), P5/Rose Bengal (1:5), plate reader - bottom read turned out to be 8 fold; the Fluorescence Change (phosphorylation-induced fold-change), P5/Rose Bengal (1:5), plate reader - top read was 30 fold; the Fluorescence Change (phosphorylation-induced fold-change), P5/Rose Bengal (1:5), spectrofluorimeter came to 64 fold.

Turning to “Pyr-miniPEG™-Gly-Arg-Thr-Gly-Arg-Arg-Phe-Ser-Tyr-Pro-amide ({Acetyl(1-pyrenyl)-AEEA}-GRTGRRFSYP-NH2; SMILES C[C@@H](O)[C@H](NC(=O)[C@H](CCCNC(=N)N)NC(=O)CNC(=O)COCCOCCNC(=O)Cc1ccc2ccc3cccc4ccc1c2c34)C(=O)NCC(=O)N[C@@H](CCCNC(=N)N)C(=O)N[C@@H](CCCNC(=N)N)C(=O)N[C@@H](Cc1ccccc1)C(=O)N[C@@H](CO)C(=O)N[C@@H](Cc1ccc(O)cc1)C(=O)N1CCC[C@H]1C(N)=O) [Peptide P11]”, in assay [5], the “% Fluorescence Enhancement” value is on record as 38%. As for “phosphorylated peptide P3, Ac-GRTDap(Pyr)RRFSYP-amide after phosphorylation of Ser by PKA”, in assay [1], the % Fluorescence Enhancement (phosphorylation-induced, PKA + ATP + 14-3-3τ, no quenching dye) stood at 19%.

As for Reactive Blue 2 [Peptide D6], the Kd in assay [2] was 19.6 ± 3.4 µM.

With `O=S(=O)(O)c1ccc(/N=N/c2ccc(/N=N/c3c(O)c(S(=O)(=O)O)cc4cc(S(=O)(=O)O)ccc34)c(S(=O)(=O)O)c2)cc1` [Peptide D42, Ponceau S], the Kd in assay [2] is 11.2 ± 2.7 µM. Take “Ac-Gly-Arg-Thr-Dap(Pyr)-Arg-Arg-Phe-Ser-Tyr-Pro-amide [Peptide P3]”: the “% Fluorescence Enhancement” value in assay [5] stood at 19%. Same read-out and setting: the figure for “Ac-Gly-Arg-Dap(Pyr)-Gly-Arg-Arg-Phe-Ser-Tyr-Pro-amide [Peptide P4]” is 40%. For “Pyr-Aoc-Gly-Arg-Thr-Gly-Arg-Arg-Phe-Ser-Tyr-Pro-amide ({Acetyl(1-pyrenyl)-Aoc′}-GRTGRRFSYP-NH2) [Peptide P10]”, in assay [5], the “% Fluorescence Enhancement” value is 39%. Consider `Cc1cc(-c2ccc(/N=N/c3ccc4c(S(=O)(=O)O)cc(S(=O)(=O)O)c(N)c4c3O)c(C)c2)ccc1/N=N/c1ccc2c(S(=O)(=O)O)cc(S(=O)(=O)O)c(N)c2c1O` [Peptide D3, Evans Blue], for which the Kd in assay [2] was 2.8 ± 0.8 µM.

For the molecule `Cc1cc(-c2ccc(/N=N/c3c(S(=O)(=O)O)cc4cc(S(=O)(=O)O)cc(N)c4c3O)c(C)c2)ccc1/N=N/c1c(S(=O)(=O)O)cc2cc(S(=O)(=O)O)cc(N)c2c1O` [Peptide D48, Trypan Blue], the Kd in assay [2] was found to be 11.9 ± 3.6 µM.

Consider `O=[N+]([O-])c1ccc2c(N=Nc3ccc4ccccc4c3O)c(O)cc(S(=O)(=O)O)c2c1` [Peptide D18, Eriochrome Black T], for which, in assay [2], the Kd stood at 14.3 ± 3.3 µM. On the same count and under the same terms, the figure for `O=C(O)c1nn(-c2ccc(S(=O)(=O)O)cc2)c(O)c1N=Nc1ccc(S(=O)(=O)O)cc1` [Peptide D47, Tartrazine] is 15 ± 2.1 µM.

In the case of “Pyr-BAla-Gly-Arg-Thr-Gly-Arg-Arg-Phe-Ser-Tyr-Pro-amide ({Acetyl(1-pyrenyl)}-[βAla]GRTGRRFSYP-NH2; SMILES C[C@@H](O)[C@H](NC(=O)[C@H](CCCNC(=N)N)NC(=O)CNC(=O)CCNC(=O)Cc1ccc2ccc3cccc4ccc1c2c34)C(=O)NCC(=O)N[C@@H](CCCNC(=N)N)C(=O)N[C@@H](CCCNC(=N)N)C(=O)N[C@@H](Cc1ccccc1)C(=O)N[C@@H](CO)C(=O)N[C@@H](Cc1ccc(O)cc1)C(=O)N1CCC[C@H]1C(N)=O) [Peptide P6]”, in assay [5], the “% Fluorescence Enhancement” value was determined as 49%. “phosphorylated peptide P4, Ac-GRDap(Pyr)GRRFSYP-amide after phosphorylation of Ser by PKA”: the % Fluorescence Enhancement (phosphorylation-induced, PKA + ATP + 14-3-3τ, no quenching dye) in assay [1] worked out at 40%.

Regarding “Pyr-Abu-Gly-Arg-Thr-Gly-Arg-Arg-Phe-Ser-Tyr-Pro-amide ({Acetyl(1-pyrenyl)}-[Abu]GRTGRRFSYP-NH2; SMILES CC[C@H](NC(=O)Cc1ccc2ccc3cccc4ccc1c2c34)C(=O)NCC(=O)N[C@@H](CCCNC(=N)N)C(=O)N[C@H](C(=O)NCC(=O)N[C@@H](CCCNC(=N)N)C(=O)N[C@@H](CCCNC(=N)N)C(=O)N[C@@H](Cc1ccccc1)C(=O)N[C@@H](CO)C(=O)N[C@@H](Cc1ccc(O)cc1)C(=O)N1CCC[C@H]1C(N)=O)[C@@H](C)O) [Peptide P7]”, in assay [5], the “% Fluorescence Enhancement” value is recorded as 47%.

For “GRTGRRNAI-NH2 (C-terminus assumed) [PKI 14-22]”, the IC50 came out at 1.6 ± 0.2 µM in assay [6] and 1.1 ± 0.1 µM in assay [7]. For the molecule “Pyr-Ava-Gly-Arg-Thr-Gly-Arg-Arg-Phe-Ser-Tyr-Pro-amide ({Acetyl(1-pyrenyl)-Ava}-GRTGRRFSYP-NH2; SMILES C[C@@H](O)[C@H](NC(=O)[C@H](CCCNC(=N)N)NC(=O)CNC(=O)CCCCNC(=O)Cc1ccc2ccc3cccc4ccc1c2c34)C(=O)NCC(=O)N[C@@H](CCCNC(=N)N)C(=O)N[C@@H](CCCNC(=N)N)C(=O)N[C@@H](Cc1ccccc1)C(=O)N[C@@H](CO)C(=O)N[C@@H](Cc1ccc(O)cc1)C(=O)N1CCC[C@H]1C(N)=O) [Peptide P8]”, the “% Fluorescence Enhancement” value in assay [5] is on record as 31%.

On to `Nc1ccc(N=Nc2ccc(-c3ccc(N=Nc4c(S(=O)(=O)O)cc5cc(S(=O)(=O)O)c(N=Nc6ccccc6)c(O)c5c4N)cc3)cc2)c(N)c1` [Peptide D34, Chlorazol Black E], for which the Kd in assay [2] came out at 7.7 ± 1.5 µM. Take “Ac-Gly-Arg-Thr-Gly-Arg-Arg-Phe-Ser-Dap(Pyr)-Pro-amide [Peptide P1]”: in assay [5], the “% Fluorescence Enhancement” value was 0%. Consider GRTGRRF[pS]YP (also: 7-diethylaminocoumarin-3-carboxylic acid label, site not given here) [coumarin-peptide P12 after phosphorylation], for which, in assay [8], the “enhancement in fluorescence (16 µM P12, 10 µM 14-3-3, 30 µM Acid Green 27)” value worked out at 225 fold.
